For test [1], the target named is T1, BCMA-Fc (soluble human BCMA fused at its C-terminus to an Fc region of IgG) (human, UniProt Q02223 1-54).
T1 construct: also called hBCMA-Fc; hBMCA-Fc
T1 sequence: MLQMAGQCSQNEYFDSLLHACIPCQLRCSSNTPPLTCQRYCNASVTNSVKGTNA
The test can be described thus: flow cytometry, T cells transduced with O/SSE construct, CD4 gate, recombinant BCMA-Fc (rBCMA) staining against surrogate marker. As to the method:
(§1) Lentiviral constructs containing anti-BCMA CAR-encoding polynucleotides with starting and optimized sequences, respectively, as described in Example 3, were transduced into T cells and transduced cells were analyzed for transduction (based on expression of a surrogate marker) and for CAR expression based on binding to recombinant BCMA-Fc fusion protein by flow cytometry.
In general terms: A flow cytometer gives signals particle by particle.

The target of test [2] is T1, BCMA-Fc (soluble human BCMA fused at …). The test can be described thus: flow cytometry, T cells transduced with Non-SSE construct, CD8 gate, recombinant BCMA-Fc (rBCMA) staining against surrogate marker. As for the experimental part: as §1
Test [3] shares this target. The test can be described thus: flow cytometry, T cells transduced with O/SSE construct, CD8 gate, recombinant BCMA-Fc (rBCMA) staining against surrogate marker. As to the method:
as §1

For test [4] the target is unchanged. Kind of test: flow cytometry, T cells transduced with Non-SSE construct, CD4 gate, recombinant BCMA-Fc (rBCMA) staining against surrogate marker. As for the experimental part:
as §1

B1: BCMA-25-LS CAR (other)
chain: EVQLVQSGGGLVQPGRSLRLSCTASGFTFGDYAMSWFRQAPGKGLEWVGFIRSKAYGGTTEYAASVKGRFTISRDDSKSIAYLQMNSLKTEDTAVYYCAAWSAPTDYWGQGTLVTVSSGGGGSGGGGSGGGGSDIQMTQSPAFLSASVGDRVTVTCRASQGISNYLAWYQQKPGNAPRLLIYSASTLQSGVPSRFRGTGYGTEFSLTIDSLQPEDFATYYCQQSYTSRQTFGPGTRLDIKESKYGPPCPPCPAPPVAGPSVFLFPPKPKDTLMISRTPEVTCVVVDVSQEDPEVQFNWYVDGVEVHNAKTKPREEQFQSTYRVVSVLTVLHQDWLNGKEYKCKVSNKGLPSSIEKTISKAKGQPREPQVYTLPPSQEEMTKNQVSLTCLVKGFYPSDIAVEWESNGQPENNYKTTPPVLDSDGSFFLYSRLTVDKSRWQEGNVFSCSVMHEALHNHYTQKSLSLSLGKMFWVLVVVGGVLACYSLLVTVAFIIFWVKRGRKKLLYIFKQPFMRPVQTTQEEDGCSCRFPEEEEGGCELRVKFSRSADAPAYQQGQNQLYNELNLGRREEYDVLDKRRGRDPEMGGKPRRKNPQEGLYNELQKDKMAEAYSEIGMKGERRRGKGHDGLYQGLSTATKDTYDALHMQALPPR
notes: Chimeric antigen receptor; signal peptide left out; also called BCMA-25-LS-O/SSE CAR; BCMA-25-L CAR
Regarding B1, the “% of cells in Q1 (rBCMA+ marker-)” value was found to be 2.36% in test [1], 0.37% in test [2], 1.37% in test [3] and 0.31% in test [4]. For the same molecule, the “% of cells in Q3 (rBCMA- marker+)” value was 10.4% in test [1], 29.4% in test [2], 17.5% in test [3] and 30.5% in test [4]. The “% of cells in Q4 (rBCMA- marker-)” value was found to be 22.3% in test [1], 52.5% in test [2], 19.4% in test [3] and 51.3% in test [4].

B2: BCMA-52-LS CAR (other)
chain: SYELTQPPSASGTPGQRVTMSCSGTSSNIGSHSVNWYQQLPGTAPKLLIYTNNQRPSGVPDRFSGSKSGTSASLAISGLQSEDEADYYCAAWDGSLNGLVFGGGTKLTVLGSRGGGGSGGGGSGGGGSLEMAEVQLVQSGAEVKKPGESLKISCKGSGYSFTSYWIGWVRQMPGKGLEWMGIIYPGDSDTRYSPSFQGHVTISADKSISTAYLQWSSLKASDTAMYYCARYSGSFDNWGQGTLVTVSSESKYGPPCPPCPAPPVAGPSVFLFPPKPKDTLMISRTPEVTCVVVDVSQEDPEVQFNWYVDGVEVHNAKTKPREEQFQSTYRVVSVLTVLHQDWLNGKEYKCKVSNKGLPSSIEKTISKAKGQPREPQVYTLPPSQEEMTKNQVSLTCLVKGFYPSDIAVEWESNGQPENNYKTTPPVLDSDGSFFLYSRLTVDKSRWQEGNVFSCSVMHEALHNHYTQKSLSLSLGKMFWVLVVVGGVLACYSLLVTVAFIIFWVKRGRKKLLYIFKQPFMRPVQTTQEEDGCSCRFPEEEEGGCELRVKFSRSADAPAYQQGQNQLYNELNLGRREEYDVLDKRRGRDPEMGGKPRRKNPQEGLYNELQKDKMAEAYSEIGMKGERRRGKGHDGLYQGLSTATKDTYDALHMQALPPR
notes: Chimeric antigen receptor on T cells; also called BCMA-52-LS-O/SSE CAR; BCMA-52-L CAR
Turning to B2, the “% of cells in Q1 (rBCMA+ marker-)” value in test [1] amounted to 3.66%; in test [2], 2.88%; in test [3], 3.89%; in test [4] it was 1.71%. Besides, the “% of cells in Q3 (rBCMA- marker+)” value in test [1] is 3.85%; in test [2] it was 24.3%; in test [3] it was 5.38%; in test [4], 19.5%. Besides, the “% of cells in Q4 (rBCMA- marker-)” value came to 22.9% in test [1], 41.1% in test [2], 28.3% in test [3] and 42.5% in test [4].

(Values after patent US20260109774A1 (JUNO THERAPEUTICS, published 2026).)
